Measurements published in patent publication US20220193237A1 (Bristol-Myers Squibb, published 2022).
Changes are numbered by the printed parent chain. In names and notes the source's numbering stands. Like-named read-outs stand apart in the source and are kept apart here. Values belong to the binder of their own block, whether it stands above or below them.

Columns and labels:
[1] = biological target: T1, human CTLA-4 on 58 α-β-CTLA-4/CD3 ζ cells (human; mouse (mCD3ζ)); assay: flow cytometry (GMFI), full-length IgG on 58 α-β-CTLA-4/CD3 ζ cells, pH 6.3
T1 construct: also called 58αβ-hCTLA4/mCD3ζ cells; 58αβ-CTLA4/mCD3ζ cells

[2] = biological target: T1, human CTLA-4 on 58 α-β-CTLA-4/CD3 ζ …; assay: flow cytometry (GMFI), full-length IgG on 58 α-β-CTLA-4/CD3 ζ cells, pH 7.2
[3] = biological target: T1, human CTLA-4 on 58 α-β-CTLA-4/CD3 ζ …; assay: flow cytometry (GMFI), full-length IgG on 58 α-β-CTLA-4/CD3 ζ cells, pH 6.6
monomeric human CTLA-4 [4] = biological target: T2, monomeric human CTLA-4 (human, UniProt P16410 36-161, limits assumed); assay: SPR, captured Fab, pH 7.4; pH 7.4
T2 construct: Soluble monomeric analyte in SPR; also called huCTLA-4
T2 sequence: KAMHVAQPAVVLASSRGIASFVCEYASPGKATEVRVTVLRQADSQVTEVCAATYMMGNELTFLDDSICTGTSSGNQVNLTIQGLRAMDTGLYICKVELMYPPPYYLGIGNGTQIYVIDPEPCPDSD
Method: (§1) Unless otherwise indicated, experiments were performed with a BIACORE® SPR surface plasmon resonance spectrometer (Biacore AB, Uppsala, Sweden). Antibodies were tested as monovalent Fab fragments to simplify analysis.
(§2) Monomeric human CTLA-4 was flowed as analyte with up to 2 μM top concentration. Between cycles, the capture surface was regenerated with 75 mM phosphoric acid. Experiments were run on a BIACORE® T200 instrument at 37° C. Running buffers were HEPES buffered saline for pH 7.4 experiments and Bis-Tris buffered saline for lower pH experiments. […] Double referenced sensorgrams were fitted to a 1:1 Langmuir binding model with mass transport to determine equilibrium dissociation constants (KD), as well as association (kₐ) and dissociation (kd) rate constants where appropriate.

monomeric human CTLA-4 [5] = biological target: T2, monomeric human CTLA-4; assay: SPR, captured Fab, pH 6.0 vs 7.4
monomeric human CTLA-4 [6] = biological target: T2, monomeric human CTLA-4; assay: SPR, captured Fab, pH 6.0
monomeric cyno CTLA-4 = biological target: T3, monomeric cyno CTLA-4 (cynomolgus macaque (Macaca fascicularis), UniProt G7PL88 36-161); assay: SPR, Fab, monomeric cyno CTLA-4 as analyte; koff (s^-1, linear axis 0 to 0.3) plotted against pH
T3 construct: also called CTLA-4 from the cynomolgus macaque Macaca fascicularis
T3 sequence: T2 sequence with S14N, I18T, L106M
Method: The pH dependence of binding of selected antibodies of the present invention to human CTLA-4 and cyno CTLA-4 was measured by surface plasmon resonance (SPR) spectroscopy, essentially as described in Example 3. Briefly, antibodies were studied as monovalent Fab fragments. Anti-human kappa polyclonal capture antibody (Southern Biotech, Ala. USA) was immobilized on a ethylenediamine-blocked CM4 sensor chip in a Biacore T200 surface plasmon resonance system. Fab fragments of selected antibodies of the present invention were then captured on one flow cell each. […] Running buffer was 20 mM BisTris, 150 mM NaCl, 0.05% Tween-20, 1 g/L BSA, at a pH ranging from 5.5 to 7.4 in 0.1-0.2 pH unit intervals (12 total). The surface was regenerated with 1/200 H₃PO₄ between cycles. […] Where required, the Rₘₐₓ was fixed by calculating expected binding based on capture level and apparent activity from other fits for the same Fab.

[7] = biological target: T1, human CTLA-4 on 58 α-β-CTLA-4/CD3 ζ …; assay: flow cytometry (APC mean FI), Fab on 58αβ-CTLA4/mCD3ζ cells, pH 6.7
Method: Antibodies were titrated from 100 μg/mL at a 1:4 dilution across 12 points in pH-specific buffers and incubated for 30-60 minutes. Buffers contained HBSS, 2% FBS^HI, 0.02% sodium azide, 2 mM EDTA, and sodium phosphate buffer (pH 5.4). Sodium phosphate buffer was added until desired pH was reached (7.2, 6.7, 6.2). Approximately 3e5 cells/well were tested for each cell line. […] Detection was done with a monovalent anti-hKappa secondary nanobody conjugated to Alexa647 and used at a dilution of 1:2000. Cells were fixed with BD Fix Solution I for 30 minutes prior to resuspension in pH-specific buffers and reading on the cytometer (BD Fortessa).
The experimental protocol was the same as used to obtain the data of FIGS. 16A-C.

monomeric human CTLA-4 [8] = biological target: T2, monomeric human CTLA-4; assay: SPR, captured Fab, pH 7.4
monomeric human CTLA-4 [9] = biological target: T2, monomeric human CTLA-4; assay: SPR, captured Fab, pH 6.0 and pH 7.4
monomeric human CTLA-4 [10] = biological target: T2, monomeric human CTLA-4; assay: SPR, captured Fab, pH 6.0; remark: listed apart in the source
Method: as §1, §2

monomeric human CTLA-4 [11] = biological target: T2, monomeric human CTLA-4; assay: SPR, captured Fab, pH 6.0 vs 7.4; remark: listed apart in the source
Method: as §1, §2

monomeric human CTLA-4 [12] = biological target: T2, monomeric human CTLA-4; assay: SPR, captured Fab, pH 7.4; remark: listed apart in the source
Method: as §1, §2

- EC50 (read off the curve) [1]: ~1 nM
- EC50 (read off the curve) [2]: ~1 nM
- EC50 (read off the curve) [3]: ~1 nM
B1: ipi.71 (full-length IgG) (antibody, V domains shown)
VH: QVQLVESGGGVVQPGRSLRLSCAASGFTFSHYTMHWVRQAPGKGLEWVTFISYDGHNKYYADSVKGRFTISRDNSKNTLYLQMNSLRAEDTAIYYCARTGWLGPFDYWGQGTLVTVSS
VL: not shown
notes: Full-length bivalent IgG (human IgG1); heavy chain entry is without the C-terminal lysine

- Kd (monomeric human CTLA-4 [4]): > 1000 nM
- KD 7.4/6 (APBP) (monomeric human CTLA-4 [5]): > 28
- Kd (monomeric human CTLA-4 [6]): 36 nM
- kon (monomeric human CTLA-4 [6]): 1.9e+06 M⁻¹ s⁻¹
- t1/2 (monomeric human CTLA-4 [6]): 10 s
B2: ipi.90 Fab (Fab, V domains shown)
VH: B1 VH with H56N, T99H
VL: EIVLTQSPGTLSLSPGERATLSCRASQEVGDSELAWYQQKPGQAPRLLIYGAFSRATGIPDRFSGSGSGTDFTLTISRLEPEDFAVYYCQQYGSSPWTFGQGTKVEIKR
notes: Tested as monovalent Fab

- binding result (monomeric cyno CTLA-4): binds
- KD 7.4/6 (APBP) (monomeric human CTLA-4 [5]): > 20
- Kd (monomeric human CTLA-4 [6]): 18 nM
- kon (monomeric human CTLA-4 [6]): 1.2e+06 M⁻¹ s⁻¹
- t1/2 (monomeric human CTLA-4 [6]): 33 s
- EC50 (read off the curve) [7]: ~3 µg/mL
- Kd (monomeric human CTLA-4 [8]): > 350 nM
B3: ipi.106 Fab (Fab, V domains shown)
VH: B1 VH with T99H
VL: B2 VL with D31E
notes: Tested as monovalent Fab

- fold decrease of affinity (increased KD) vs ipilimumab (monomeric human CTLA-4 [9]): ~4 fold
- KD 7.4/6 (APBP) (monomeric human CTLA-4 [5]): 1.3
- Kd (monomeric human CTLA-4 [6]): 76 nM
- kon (monomeric human CTLA-4 [6]): 1.1e+06 M⁻¹ s⁻¹
- t1/2 (monomeric human CTLA-4 [6]): 9 s
- Kd (monomeric human CTLA-4 [10]): 180 nM
- koff (monomeric human CTLA-4 [10]): 0.15 s⁻¹
- kon (monomeric human CTLA-4 [10]): 840000 M⁻¹ s⁻¹
- Kd (monomeric human CTLA-4 [8]): 97 nM
- KD 7.4/6 (APBP) (monomeric human CTLA-4 [11]): 0.9
- Kd (monomeric human CTLA-4 [12]): 200 nM
- koff (monomeric human CTLA-4 [12]): 0.094 s⁻¹
- kon (monomeric human CTLA-4 [12]): 480000 M⁻¹ s⁻¹
B4: ipi.3 Fab (Fab, V domains shown)
VH: B1 VH with H31S, H56N, T99H
VL: not shown
notes: Tested as monovalent Fab; also called HCDR3 T95H (Kabat)
